Assay results published in publication PMC3287177.

Key:
Test in all cases: EMSA
Lin28 1-209 = molecular target: T1, Lin28 1-209 (Mus musculus, UniProt Q8K3Y3 1-209)
T1 sequence: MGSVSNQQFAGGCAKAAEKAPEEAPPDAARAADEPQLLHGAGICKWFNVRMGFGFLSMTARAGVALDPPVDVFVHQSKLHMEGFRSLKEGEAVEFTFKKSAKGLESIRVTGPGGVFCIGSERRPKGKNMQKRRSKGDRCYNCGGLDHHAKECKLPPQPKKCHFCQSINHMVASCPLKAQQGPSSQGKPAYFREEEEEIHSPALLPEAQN

Lin28 39-112 (CSD) = molecular target: T2, Lin28 39-112 (CSD) (Mus musculus, UniProt Q8K3Y3 39-112)
T2 sequence: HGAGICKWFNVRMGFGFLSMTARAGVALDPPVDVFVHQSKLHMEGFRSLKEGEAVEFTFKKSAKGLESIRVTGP

[1] = molecular target: T3, Lin28 119-180 (NCp7-like domain) (Mus musculus, UniProt Q8K3Y3 119-180)
T3 sequence: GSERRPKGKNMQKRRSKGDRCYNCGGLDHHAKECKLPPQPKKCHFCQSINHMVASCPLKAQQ

B1: pre-let-7g (structured_RNA)
RNA: UGAGGUAGUAGUUUGUACAGUUUGAGGGUCUAUGAUACCACCCGGUACAGGAGAUAACUGUACAGGCCACUGCCUUGCC
B1 showed a Kd (Lin28 1-209) of 0.15 ± 0.04 nM, a Kd (Lin28 39-112 (CSD)) of 41 ± 10 nM and a Kd [1] of 0.6 ± 0.1 nM.
